Values of other authors, collected in PMC4271544.

Molecular target: Capping protein (CP) (Homo sapiens) (UniProt P52907)

For V-1 (myotrophin) (from UniProt P58546), the Kd is given as 40 nM.
